Test results as given in the supplement of paper PMC9170038.

System: MS2 coat protein
Assay: apparent KD of MS2 coat protein; designed switch direction (-1 OFF switch, 1 ON switch): -1; higher = weaker reporter binding
Outline: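 Stalled E. coli RNA polymerase transcribed designed RNA switches on Illumina chips, which were then titrated with SNAP-549-labelled MS2 coat protein, doubling from 0.7 or 1.5 nM to 3 µM. Steps lasted from 0.8–1.5 h at the lowest concentration to 10–20 min at the highest. The apparent KD is each design's median over clusters of curve-fitted normalised fluorescence.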

[1] = input ligand: microRNA oligo, concentration not stated
[2] = Eterna round: R95, input ligand: FMN 200 uM
[3] = Eterna round: R95, input ligand: microRNA oligo, concentration not stated
[4] = Eterna round: R95, input ligand: none

Sequence | apparent KD of MS2 coat protein (input ligand: FMN 200 uM) [nM] | apparent KD of MS2 coat protein [1] [nM] | apparent KD of MS2 coat protein (input ligand: none) [nM] | apparent KD of MS2 coat protein [2] [nM] | apparent KD of MS2 coat protein [3] [nM] | apparent KD of MS2 coat protein [4] [nM]
ACAUGAGGAUCACCCAUGUACACGUAAUGGCUCAUGUAGAGUGAGGAUAUGUGUGACGAACGAGCACAGAAGGCACAAGACUGG [Deportation 12 - Jieux - Exclusion NG 3] (Eterna round: R96, puzzle: Exclusion NG 3) | 51.8 | 39.8 | 40.2 |  |  | 
AUUCCACAUGAGGAUCACCCAUGUGAGGAUAUCAUGCUUCGUAGUAAACUACGAAGUGUGAGAAGGCACAAUGG [Omei Ex1 C3] (Eterna round: R97, puzzle: Exclusion 1) | 183 |  | 62 |  |  | 
UUGUUGUGUGUAGGAUAUGCGUAUUAUUAUUAUGCAGAAGGACAUGAGGAUCACCCAUGUGUAUUAUUAUUAUAUAUUAUAUAU [Title] (Eterna round: R96, puzzle: Exclusion NG 1) | 43.3 | 21.8 | 25 |  |  | 
UGUUGUCGCGCAGGAUAUGGCCAACAGGCCCUAGGAUAUCCGAAAGGAGAAGGAGCGCCAACAGGCGAGAAGGGCGGGACAACU [pwkr exNG2 2xF7 2xFMN.16] (Eterna round: R96, puzzle: Exclusion NG 2) | 19.5 | 4.03 | 29.7 |  |  | 
GAGAAACAUGAGGAUCACCCAUGUGAGGAUAUGCGUACGUUGUCCGUAGGCGACGUGCGCAGAAGGCGCAAAAG [Mat - Mod of JL D87] (puzzle: Exclusion 1) |  |  |  | 59 | 53.5 | 96
UCCUUACAUGAGGAUCACCCAUGUCAGGAUAUCUCCUCACUGCGCUUGCGCAGUGGAUAGAGAAGGGACGGGCU [JL ViennaUCT Aner mod 9] (puzzle: Exclusion 1) |  |  |  | 32.3 | 27.1 | 32.8
GCAGCAACUCUAAUUAAAACCACAUGAGGAUCACCCAUGUCUCAGGAUAUGGUCUGGAUUACAGGCCAGAAGGGAGAAAGCUGC [Eli exng3 - 051] (Eterna round: R96, puzzle: Exclusion NG 3) | 15.9 | 14.9 | 17 |  |  | 
GAGUGCUGAGGAUAUACAUGAGGAUCACCCAUGUGCUUCAGCUAGGAGACUAGCAUUGGUAGAAGGUAGUACUC [Mod of lroppy 4 - Jieux - Exclusion 3] (Eterna round: R97, puzzle: Exclusion 3) | 19.9 |  | 13.2 |  |  | 
AGAAGACAUGAGGAUCACCCAUGUAAGGAUAUUGGAGGUUAGGGAUGCUGGAGUUGGGCAAGAAGGUACAGGUG [JR_Exclu1_Sub092] (puzzle: Exclusion 1) |  |  |  | 46.9 | 49.8 | 81
GAUCAACAUGAGGAUCACCCAUGUCAGGAUAUCUAUCAAGUGAGCCUAUCACAAUUUGGGAGAAGGGACCUAAU [Eternabot (L2) Solution 51] (Eterna round: R97, puzzle: Exclusion 1) | 35.1 |  | 35.8 |  |  | 
CAAUAGCGAGGAUAUACAUGAGGAUCACCCAUGUGAUCCUUAGGCUGUUGAAGCCUAUGUAGAAGGCGCAAAUU [jl-ex3.4.57 ViennaUCT mod] (Eterna round: R97, puzzle: Exclusion 3) | 198 |  | 138 |  |  | 
CGUUCGCGAGGAUAUGCAUUCGAGUCCACUACGUGUCUGGGACUUGAGGAUCACCCAAGUAGAAGGCGCCUCAC [salish99_ex2_r4_648] (Eterna round: R97, puzzle: Exclusion 2) | 83.9 |  | 135 |  |  | 
UUUUGGCAGGCUAUUAUUAACAUGAGGAUCACCCAUGUGCAUCCAAAAUUACUUUUAGAUCUUGCUCGUCUUAUAUA [JR_STOV1_Sub086] (Eterna round: R97, puzzle: Sensor, turn-off variant 1) | 379 |  | 684 |  |  | 
CACCUGAACUCAGGAUAUCAUACAUGAGGAUCACCCAUGUAAUAAAUGAGAAUUUCGAAUGUAAUUGAGAAGGGAGAAUAAGGC [Ostricism 98 - Jieux - Exclusion NG 2] (Eterna round: R96, puzzle: Exclusion NG 2) | 88.8 | 33.8 | 38.8 |  |  | 
GUGCAACAUGAGGAUCACCCAUGUCAGGAUAUGCGAAUUUCAUCAAAAGAUGAAAUUUGCAGAAGGGACUAUAC [Omei Ex1 A22] (Eterna round: R97, puzzle: Exclusion 1) | 67.4 |  | 38.5 |  |  | 
GGAAACCGAGGAUAUCAGUACACGCACAUGAGGAUCACCCAUGUGCUCCUGGGUGCUGUCUGAGAAGGCGGUGAGA [Quan] (Eterna round: R97, puzzle: Exclusion 5) | 648 |  | 1620 |  |  | 
AGUAGAUCUACGCUUGCGUGGAUCUGCAAUGCAGGUGUUACAUGAGGAUCACCCAUGUCCUCGUUUGCUCGUCUUAU [JL turnoff v2 99.12] (puzzle: Sensor v3, turn-off variant 2) |  |  |  | 209 | 664 | 222
CCGGAAGUACAGGAUAUCGUAUCGGAUACGAUACGAGAAGGGUAUACAUGAGGAUCACCCAUGUGUCCUACCGG [Fiskers Ex 6 - 55] (puzzle: Exclusion 6) |  |  |  |  | 19.6 | 
GGAUAGUGAGGAUAUGCAUACGGUGUAAGUCCCAGAUCGAAACAUGAGGAUCACCCAUGUAGAAGGCGCAAAAC [Begerila] (puzzle: Exclusion 2) |  |  |  |  | 20.2 | 
UUUGUUUUGGUAGGAUAUACUUUUAUUUUCUCUUUCCUUACAUGAGGAUCACCCAUGUUUACAUUGUAGAAGGACCACUUUGUU [JR_ExcNG2_Sub051] (Eterna round: R96, puzzle: Exclusion NG 2) |  | 15.5 |  |  |  | 
GAUUAUGCGAGCUUUAGGGACAUGAGGAUCACCCAUGUUCGUCUUAUUGGUCUAAGUGCACUAACAUACCUAAAUCU [JMF 30] (puzzle: Sensor v3, turn-off variant 1) |  |  |  | 21.2 | 38.5 | 20
GAUAGAGAGCAGGAUAUCAUAGAAAUGUAUGAAUGAGAAGGGCUCACAUGAGGAUCACCCAUGUGGUCCUAGAU [JL Dibiri mod 19] (Eterna round: R96, puzzle: Exclusion 6) |  | 23.4 |  |  |  | 
UAGAGACAUGAGGAUCACCCAUGUCAGGAUAUCUGCUUAGACAGGUUCACGGUCUAGUAGAGAAGGGACUGGAG [Eternabot (L2) Solution 42] (Eterna round: R97, puzzle: Exclusion 1) | 121 |  | 87.4 |  |  | 
AAUCAUGAACGAGCUUUUUACAUGAGGAUCACCCAUGUCCUCUGCUCGUCUUGUCUUGGGCUUUUUUUGGGUUCGGG [-22.4, -44.7 kcal, A 16%] (Eterna round: R97, puzzle: Sensor, turn-off variant 1) | 320 |  | 355 |  |  | 
AAAAAAAGACAAGAGGAGAUUCGUCUUAAAAAUCCUCAAACAUGAGGAUCACCCAUGUAAAAUGAUCGAAAGAUCAA [Mat - Sensor v2 - ver2 - JL mod - D39] (Eterna round: R96, puzzle: Sensor v2, turn-off variant 2) | 25.7 | 24 | 29.2 |  |  | 
GGUUUGCGGCAGGAUAUCCAUCCGCGGUAUGGUGGAGAAGGGCUGACAUGAGGAUCACCCAUGUGCGUCCUAGG [salish99_ex6_r4_018] (Eterna round: R97, puzzle: Exclusion 6) | 24.6 |  | 18.8 |  |  | 
GGCCUUCCGCAAGCUUUUUACAUGAGGAUCACCCAUGUGGUUUUUAGUCUUAUGUUCGGGCCCGUGUGGGCUCGGGC [-25.5, -46.5, A 13%] (Eterna round: R97, puzzle: Sensor, turn-off variant 1) | 28.4 |  | 29 |  |  | 
GCCGAAUAAGUGAGGAUAUACCUAUGGAUACAUAGGUAGAAGGCACAUGAGGAUCACCCAUGUACCUCAACGGC [JL-BMX4-4.16 Eli mod] (Eterna round: R97, puzzle: Brourd's mod of Exclusion 4) | 34.5 |  | 14.8 |  |  | 
UCCUCACAUGAGGAUCACCCAUGUCAGGAUAUACCCAUCCAGCGAAAUUAAAGCUGUAGUAGAAGGGACAUGCA [Raertele] (Eterna round: R97, puzzle: Exclusion 1) | 40.4 |  | 20.1 |  |  | 
GUUUGACAUGAGGAUCACCCAUGUGAGGAUAUCGUCUGGUACGUGUUGGCUGGCAUCUCGAGAAGGCGCAUAGG [Exclusion 1 V57] (puzzle: Exclusion 1) |  |  |  | 75.9 | 49.7 | 64.9
